The results in this text go back to patent US20260209386A1 (MYTHIC THERAPEUTICS, published 2026).

Residue numbers refer to the chain shown, from its start.

B1: MYT6269 (antibody, V domains shown)
VH: QVQLVESGGGVVQPGRSLRLSCAASGFTFSSYGMHWVRQAPGKGLEWVAVIWDDGSNKYYVDSVKGRFTISRDNSKNTLYLQMNSLRAEDTAVYYCARDDYYGSGSFNSYYGTHVWGQGTTVTVSS
VL: EIVLTQSPATLSLSPGERATLSCRASQSVSIYLAWYQQKPGQAPRLLIYDASNRATGIPARFSGSGSGTDFTLTISSLEPEDFAVYYCQQRSNWPPFTFGPGTKVDIK
notes: IgG
B2: MYT7963 (antibody, V domains shown)
VH: EVQLVQSGGGLVHPGGSLRLSCAGSGFTHSTYLMYWVRQAPGKTLEWVSAIGSGGDTYYADSVKGRFTISRDNAKNSLYLQMNSLRAEDMAVYYCARGLGYWGQGTLVTVSS
VL: not shown
notes: IgG
B3: MYT7989 (antibody, V domains shown)
VH: B2 VH with H29F, L99H
VL: not shown
notes: IgG
B4: MYT8016 (antibody, V domains shown)
VH: B2 VH with H29F
VL: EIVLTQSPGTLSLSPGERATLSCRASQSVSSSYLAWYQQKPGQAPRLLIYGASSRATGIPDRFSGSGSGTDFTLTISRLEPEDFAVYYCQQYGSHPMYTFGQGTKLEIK
notes: IgG
B5: MYT7988 (antibody, V domains shown)
VH: B2 VH with H29F, G98H
VL: not shown
notes: IgG
B6: MYT7973 (antibody, V domains shown)
VH: B2 VH with H29F, S53H
VL: not shown
notes: IgG
B7: MYT7986 (antibody, V domains shown)
VH: B2 VH with H29F, A96H
VL: not shown
notes: IgG
B8: MYT7987 (antibody, V domains shown)
VH: B2 VH with H29F, R97H
VL: not shown
notes: IgG
B9: MYT7970 (antibody, V domains shown)
VH: B2 VH with H29F, A50H
VL: not shown
notes: IgG
B10: MYT8017 (antibody, V domains shown)
VH: B2 VH with H29F
VL: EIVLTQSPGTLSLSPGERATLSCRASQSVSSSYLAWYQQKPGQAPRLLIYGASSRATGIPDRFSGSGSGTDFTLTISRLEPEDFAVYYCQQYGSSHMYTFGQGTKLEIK
notes: IgG
B11: MYT7972 (antibody, V domains shown)
VH: B2 VH with H29F, G52H
VL: not shown
notes: IgG
B12: MYT8019 (antibody, V domains shown)
VH: B2 VH with H29F
VL: not shown
notes: IgG
B13: MYT8003 (antibody, V domains shown)
VH: B2 VH with H29F
VL: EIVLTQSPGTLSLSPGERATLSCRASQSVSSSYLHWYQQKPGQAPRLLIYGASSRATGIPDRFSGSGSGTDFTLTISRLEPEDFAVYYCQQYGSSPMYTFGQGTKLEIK
notes: IgG
B14: MYT7858 (antibody, V domains shown)
VH: QVQLVQSGPEVKKPGASVKVSCKASGYTFTDYAVHWVRQAPGKRLEWIGVISTYNDYTYNNQDFKGRVTMTRDTSASTAYMELSRLRSEDTAVYYCARGNSYFYALDYWGQGTSVTVSS
VL: EIVLTQSPATLSLSPGERATLSCRAHESVDSYGKSFMAWYQQKPGQAPRLLIYRASNLESGIPARFSGSGSGTDFTLTISSLEPEDFAVYYCQQSNEDPWTFGGGTKLEIK
notes: IgG
B15: MYT7862 (antibody, V domains shown)
VH: B14 VH
VL: B14 VL with H26S, S31H, A38H, S60H
notes: IgG
B16: MYT11349 (antibody, V domains shown)
VH: EVQLVESGGGLVQPGGSLRLSCTASGIDLSNYAVIWVRQAPGKGLEWVGHIYTYDTTYYANWAKGRFTISRDTSKNTVYLQMNSLRAEDTAVYFCARSFSDISDLIKLWGQGTLVTVSS
VL: EIVMTQSPSTLSASVGDRVIITCQASQSLYNNKDLAWYQQKPGKAPKLLIYEASKLASGVPSRFSGSGSGAEFTLTISSLQPDDFATYYCLGEFSCGSGDCLAFGQGTKLTVL
notes: MYT9797 HC variant; captured via anti-human Fc
B17: MYT11409 (antibody, V domains shown)
VH: B16 VH with H50I
VL: B16 VL with S98H
notes: MYT9797 LC variant; captured via anti-human Fc
B18: MYT11392 (antibody, V domains shown)
VH: B16 VH with H50I
VL: B16 VL with K33H
notes: as for B17
B19: MYT11417 (antibody, V domains shown)
VH: B16 VH with H50I
VL: B16 VL with D34A
notes: MYT9797 LC alanine variant; captured via anti-human Fc
B20: MYT11394 (antibody, V domains shown)
VH: B16 VH with H50I
VL: B16 VL with L35H
notes: as for B17
B21: MYT11369 (antibody, V domains shown)
VH: B16 VH with H50I, S100H
VL: B16 VL
notes: as for B16
B22: MYT11398 (antibody, V domains shown)
VH: B16 VH with H50I
VL: B16 VL with S54H
notes: as for B17
B23: MYT11376 (antibody, V domains shown)
VH: B16 VH with H50I, K107H
VL: B16 VL
notes: as for B16
B24: MYT11354 (antibody, V domains shown)
VH: B16 VH with H50I, D55H
VL: B16 VL
notes: as for B16
B25: MYT11363 (antibody, V domains shown)
VH: B16 VH with H50I, K64H
VL: B16 VL
notes: as for B16
B26: MYT11393 (antibody, V domains shown)
VH: B16 VH with H50I
VL: B16 VL with D34H
notes: as for B17
B27: MYT11410 (antibody, V domains shown)
VH: B16 VH with H50I
VL: B16 VL with G99H
notes: as for B17
B28: MYT11396 (antibody, V domains shown)
VH: B16 VH with H50I
VL: B16 VL with E52H
notes: as for B17
B29: MYT11356 (antibody, V domains shown)
VH: B16 VH with H50I, T57H
VL: B16 VL
notes: as for B16
B30: MYT11352 (antibody, V domains shown)
VH: B16 VH with H50I, T53H
VL: B16 VL
notes: as for B16
B31: MYT11390 (antibody, V domains shown)
VH: B16 VH with H50I
VL: B16 VL with N31H
notes: as for B17
B32: MYT11355 (antibody, V domains shown)
VH: B16 VH with H50I, T56H
VL: B16 VL
notes: as for B16
B33: MYT11380 (antibody, V domains shown)
VH: B16 VH with H50I, D55A
VL: B16 VL
notes: MYT9797 HC alanine variant; captured via anti-human Fc
B34: MYT11357 (antibody, V domains shown)
VH: B16 VH with H50I, Y58H
VL: B16 VL
notes: as for B16

In the first test the target is T1, Human PTK7/CCK4 Protein, His Tag, Acro Biosystems PT7-H52H3 (human, UniProt Q13308 31-704).
T1 construct: bought protein; also called Human PTK7 Protein, His Tag, Acro Biosystems; not shown: His tag
T1 sequence: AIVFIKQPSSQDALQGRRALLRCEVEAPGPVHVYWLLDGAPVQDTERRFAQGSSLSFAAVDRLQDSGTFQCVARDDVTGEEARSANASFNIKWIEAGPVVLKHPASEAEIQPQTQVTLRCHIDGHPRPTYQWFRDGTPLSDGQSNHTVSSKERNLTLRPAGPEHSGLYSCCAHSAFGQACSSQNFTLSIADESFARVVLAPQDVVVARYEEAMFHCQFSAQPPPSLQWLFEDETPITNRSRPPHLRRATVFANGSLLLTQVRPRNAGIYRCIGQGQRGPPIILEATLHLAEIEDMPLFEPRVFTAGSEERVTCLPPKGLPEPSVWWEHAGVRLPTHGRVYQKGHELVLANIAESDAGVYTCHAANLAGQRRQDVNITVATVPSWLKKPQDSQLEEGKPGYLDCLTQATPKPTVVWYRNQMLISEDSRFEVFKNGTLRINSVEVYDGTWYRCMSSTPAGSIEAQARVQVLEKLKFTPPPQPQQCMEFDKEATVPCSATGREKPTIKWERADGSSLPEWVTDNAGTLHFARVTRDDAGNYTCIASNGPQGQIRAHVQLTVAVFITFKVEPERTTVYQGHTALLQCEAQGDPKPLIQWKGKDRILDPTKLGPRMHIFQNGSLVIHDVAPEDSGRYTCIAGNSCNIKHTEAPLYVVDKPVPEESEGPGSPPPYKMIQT
Nature of the test: BLI, antibody on anti-human Fc sensor. In general terms: BLI is a label-free optical method that tracks binding on a fibre tip over time.
Regarding B1, the binding result is on record as “no binding (tested: 50 nM PTK7)”.

In another test the target is T2, Recombinant human CCK4/PTK7 Protein (His Tag), Sino Biological 19399-H08H (human, UniProt Q13308 31-704).
T2 construct: bought protein; not shown: His tag
T2 sequence: T1 sequence
In words: BLI, antibody on anti-human Fc sensor.
Turning to B2, the binding result is “no binding (tested: 50 nM PTK7)”.
With B3, the binding result is given as “no binding (tested: 50 nM PTK7)”.
In the case of B4, the binding result is on record as “no binding (tested: 50 nM PTK7)”.
For B5, the binding result is recorded as “no binding (tested: 50 nM PTK7)”.
As to B6, the binding result is “no binding (tested: 50 nM PTK7)”.
On to B7, for which the binding result is given as “no binding (tested: 50 nM PTK7)”.
As for B8, the binding result is on record as “no binding (tested: 50 nM PTK7)”.
B9: the binding result is “no binding (tested: 50 nM PTK7)”.
For B10, the binding result is given as “no binding (tested: 50 nM PTK7)”.
As for B11, the binding result is given as “no binding (tested: 50 nM PTK7)”.
Still for that read-out and setting: then B12, with “no binding (tested: 50 nM PTK7)”; and B13, with “no binding (tested: 50 nM PTK7)”.
Turning to B14, the binding result is “no binding (tested: 50 nM PTK7)”.
With B15, the binding result is given as “no binding (tested: 50 nM PTK7)”.

For another test, the target named is T3, Human PTK7 Protein, His Tag (Acro Biosystems) (human, UniProt Q13308 31-704).
T3 construct: Bought recombinant protein; also called CCK4; tyrosine-protein kinase-like 7; not shown: His tag
T3 sequence: T1 sequence
In words: BLI, antibody on anti-human Fc sensor, 50 nM PTK7 at pH 7.4, dissociation at pH 7.4 or 5.4; 1 = pH dependent binding relative to parent.
On to B16, for which the binding result is “binds”.
The same measure, in the same setting: in the case of B17 it was “binds”.
As for B18, the binding result is recorded as “binds”.
For the molecule B19, the binding result is reported as “binds”.
As for B20, the binding result is recorded as “binds”.
On to B21, for which the binding result was “binds”.
On the same count and under the same terms, in the case of B22 it was “binds”.
B23: the binding result is reported as “binds”.
In the case of B24, the binding result was “binds”.
Regarding B25, the binding result was “binds”.
Regarding B26, the binding result is “binds”.
On the same count and under the same terms, then B27, with “binds”.
For the molecule B28, the binding result was “binds”.
In the case of B29, the binding result is listed as “binds”.
For the molecule B30, the binding result was “binds”.
Take B31: the binding result was “binds”.
Regarding B32, the binding result is recorded as “binds”.
On the same count and under the same terms, then B33, with “binds”; and B34, with “binds”.
